In the supplement of paper PMC10567573:

B1: USP39 (parent)
chain: FQGSMRIFTKKLPHPDLPAEEKEQ

Variants of: B1
Assay: protein stability index of a GFP-peptide fusion (GPS, HEK-293T) (PSI 1-6); higher = more stable
Settings: c terminus: a fixed tail appended
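Further: lentivirally expressed fusions sorted by FACS into six bins by GFP to DsRed ratio, PSI derived from sequencing read proportions per bin multiplied by bin number.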

First: FQGSMRIFSKKLPHPDLPAEEKEQ [T9S]
Second: FQGSMRIFLKKLPHPDLPAEEKEQ [T9L]
The protein stability index of the first is lower: 1.75 for the first, 1.92 for the second.

Going from FQGSMRIFRKKLPHPDLPAEEKEQ [T9R] to FQGSMRIFNKKLPHPDLPAEEKEQ [T9N], the protein stability index rises from 2.23 to 2.65.

Going from FQGSMRIFMKKLPHPDLPAEEKEQ [T9M] to FQGSMRIFWKKLPHPDLPAEEKEQ [T9W], the protein stability index rises from 2.03 to 2.23.

First: FQGSMRIFIKKLPHPDLPAEEKEQ [T9I]
Second: FQGSMRIFQKKLPHPDLPAEEKEQ [T9Q]
The protein stability index of the first is lower: 1.66 for the first, 2.19 for the second.

Going from FQGSMRIFVKKLPHPDLPAEEKEQ [T9V] to FQGSMRIFYKKLPHPDLPAEEKEQ [T9Y], the protein stability index rises from 1.5 to 1.94.

Compared with FQGSMRIFPKKLPHPDLPAEEKEQ [T9P], FQGSMRIFKKKLPHPDLPAEEKEQ [T9K] is lower in protein stability index: 3.14 for the first, 2.08 for the second.

Compared with FQGSMRIFTKKDPHPDLPAEEKEQ [L12D], FQGSMRIFTKKMPHPDLPAEEKEQ [L12M] is lower in protein stability index: 2.63 for the first, 2.37 for the second.

First: FQGSMRIFTKKQPHPDLPAEEKEQ [L12Q]
Second: FQGSMRIFTKKAPHPDLPAEEKEQ [L12A]
The protein stability index of the first is higher: 2.23 for the first, 1.62 for the second.

First: FQGSMRIFTKKWPHPDLPAEEKEQ [L12W]
Second: FQGSMRIFTKKCPHPDLPAEEKEQ [L12C]
The protein stability index of the first is lower: 1.45 for the first, 2.15 for the second.

Compared with FQGSMRIFTKKFPHPDLPAEEKEQ [L12F], FQGSMRIFTKKSPHPDLPAEEKEQ [L12S] is higher in protein stability index: 1.47 for the first, 2.41 for the second.

Compared with FQGSMRIFTKKGPHPDLPAEEKEQ [L12G], FQGSMRIFTKKRPHPDLPAEEKEQ [L12R] is lower in protein stability index: 1.72 for the first, 1.32 for the second.

Compared with FQGSMRIFTKKTPHPDLPAEEKEQ [L12T], FQGSMRIFTKKIPHPDLPAEEKEQ [L12I] is lower in protein stability index: 1.93 for the first, 1.91 for the second.

Going from FQGSMRIFTKKVPHPDLPAEEKEQ [L12V] to FQGSMRIFTKKNPHPDLPAEEKEQ [L12N], the protein stability index rises from 1.74 to 2.05.

First: FQGSMRIFTKKEPHPDLPAEEKEQ [L12E]
Second: FQGSMRIFTKKKPHPDLPAEEKEQ [L12K]
The protein stability index of the first is lower: 1.71 for the first, 1.86 for the second.

Going from FQGSMRIFTKKPPHPDLPAEEKEQ [L12P] to FQGSMRIFTKKYPHPDLPAEEKEQ [L12Y], the protein stability index falls from 2.45 to 2.

First: FQGSMRIFTKKHPHPDLPAEEKEQ [L12H]
Second: FQGSMRIFTVKLPHPDLPAEEKEQ [K10V]
The protein stability index of the first is lower: 2.17 for the first, 2.22 for the second.

Compared with FQGSMRIFTWKLPHPDLPAEEKEQ [K10W], FQGSMRIFTSKLPHPDLPAEEKEQ [K10S] is higher in protein stability index: 1.81 for the first, 2.44 for the second.

First: FQGSMRIFTFKLPHPDLPAEEKEQ [K10F]
Second: FQGSMRIFTGKLPHPDLPAEEKEQ [K10G]
The protein stability index of the first is lower: 2.03 for the first, 2.2 for the second.

Compared with FQGSMRIFTQKLPHPDLPAEEKEQ [K10Q], FQGSMRIFTNKLPHPDLPAEEKEQ [K10N] is higher in protein stability index: 1.84 for the first, 2.81 for the second.

Going from FQGSMRIFTIKLPHPDLPAEEKEQ [K10I] to FQGSMRIFTMKLPHPDLPAEEKEQ [K10M], the protein stability index falls from 1.74 to 1.37.

Compared with FQGSMRIFTAKLPHPDLPAEEKEQ [K10A], FQGSMRIFTRKLPHPDLPAEEKEQ [K10R] is lower in protein stability index: 2.08 for the first, 1.61 for the second.

First: FQGSMRIFTDKLPHPDLPAEEKEQ [K10D]
Second: FQGSMRIFTCKLPHPDLPAEEKEQ [K10C]
The protein stability index of the first is lower: 2.07 for the first, 3.86 for the second.

Going from FQGSMRIFTLKLPHPDLPAEEKEQ [K10L] to FQGSMRIFTTKLPHPDLPAEEKEQ [K10T], the protein stability index falls from 2.53 to 1.19.

Compared with FQGSMRIFTPKLPHPDLPAEEKEQ [K10P], FQGSMRIFTYKLPHPDLPAEEKEQ [K10Y] is lower in protein stability index: 3.29 for the first, 1.94 for the second.

Compared with FQGSMRIFTHKLPHPDLPAEEKEQ [K10H], FQGSMRIFTKSLPHPDLPAEEKEQ [K11S] is lower in protein stability index: 2.37 for the first, 1.9 for the second.

First: FQGSMRIFTKQLPHPDLPAEEKEQ [K11Q]
Second: FQGSMRIFTKYLPHPDLPAEEKEQ [K11Y]
The protein stability index of the first is higher: 1.85 for the first, 1.71 for the second.

Compared with FQGSMRIFTKVLPHPDLPAEEKEQ [K11V], FQGSMRIFTKNLPHPDLPAEEKEQ [K11N] is higher in protein stability index: 2 for the first, 2.35 for the second.

Going from FQGSMRIFTKMLPHPDLPAEEKEQ [K11M] to FQGSMRIFTKWLPHPDLPAEEKEQ [K11W], the protein stability index rises from 1.61 to 1.85.

First: FQGSMRIFTKRLPHPDLPAEEKEQ [K11R]
Second: FQGSMRIFTKLLPHPDLPAEEKEQ [K11L]
The protein stability index of the first is higher: 2.06 for the first, 1.65 for the second.

Compared with FQGSMRIFTKCLPHPDLPAEEKEQ [K11C], FQGSMRIFTKDLPHPDLPAEEKEQ [K11D] is lower in protein stability index: 3.14 for the first, 2.08 for the second.

First: FQGSMRIFTKPLPHPDLPAEEKEQ [K11P]
Second: FQGSMRIFTKGLPHPDLPAEEKEQ [K11G]
The protein stability index of the first is lower: 1.84 for the first, 1.94 for the second.

First: FQGSMRIFTKHLPHPDLPAEEKEQ [K11H]
Second: FQGSMRIFTKTLPHPDLPAEEKEQ [K11T]
The protein stability index of the first is lower: 1.57 for the first, 1.96 for the second.

Going from FQGSMRIFTKALPHPDLPAEEKEQ [K11A] to FQGSMRIFTKFLPHPDLPAEEKEQ [K11F], the protein stability index rises from 1.68 to 1.7.

Compared with FQGSMRIFTKILPHPDLPAEEKEQ [K11I], FQGSMRIFTKELPHPDLPAEEKEQ [K11E] is higher in protein stability index: 1.87 for the first, 2.85 for the second.

First: FQGSMRIFTKKLVHPDLPAEEKEQ [P13V]
Second: FQGSMRIFTKKLWHPDLPAEEKEQ [P13W]
The protein stability index of the first is lower: 1.75 for the first, 3.08 for the second.

Going from FQGSMRIFTKKLIHPDLPAEEKEQ [P13I] to FQGSMRIFTKKLCHPDLPAEEKEQ [P13C], the protein stability index rises from 1.86 to 2.05.

Compared with FQGSMRIFTKKLNHPDLPAEEKEQ [P13N], FQGSMRIFTKKLQHPDLPAEEKEQ [P13Q] is lower in protein stability index: 2.35 for the first, 1.9 for the second.

First: FQGSMRIFTKKLAHPDLPAEEKEQ [P13A]
Second: FQGSMRIFTKKLGHPDLPAEEKEQ [P13G]
The protein stability index of the first is higher: 2.94 for the first, 2.1 for the second.

First: FQGSMRIFTKKLDHPDLPAEEKEQ [P13D]
Second: FQGSMRIFTKKLYHPDLPAEEKEQ [P13Y]
The protein stability index of the first is higher: 1.72 for the first, 1.62 for the second.

First: FQGSMRIFTKKLSHPDLPAEEKEQ [P13S]
Second: FQGSMRIFTKKLLHPDLPAEEKEQ [P13L]
The protein stability index of the first is lower: 1.61 for the first, 1.65 for the second.

Going from FQGSMRIFTKKLEHPDLPAEEKEQ [P13E] to FQGSMRIFTKKLMHPDLPAEEKEQ [P13M], the protein stability index rises from 1.98 to 2.12.

Compared with FQGSMRIFTKKLHHPDLPAEEKEQ [P13H], FQGSMRIFTKKLKHPDLPAEEKEQ [P13K] is lower in protein stability index: 2.4 for the first, 2.15 for the second.

First: FQGSMRIFTKKLFHPDLPAEEKEQ [P13F]
Second: FQGSMRIFTKKLTHPDLPAEEKEQ [P13T]
The protein stability index of the first is higher: 1.99 for the first, 1.68 for the second.

First: FQGSMRIFTKKLRHPDLPAEEKEQ [P13R]
Second: FQGSMRIFTKKLPAPDLPAEEKEQ [H14A]
The protein stability index of the first is higher: 2.17 for the first, 1.9 for the second.

Going from FQGSMRIFTKKLPDPDLPAEEKEQ [H14D] to FQGSMRIFTKKLPCPDLPAEEKEQ [H14C], the protein stability index rises from 2.18 to 2.27.

First: FQGSMRIFTKKLPGPDLPAEEKEQ [H14G]
Second: FQGSMRIFTKKLPFPDLPAEEKEQ [H14F]
The protein stability index of the first is lower: 1.77 for the first, 1.92 for the second.

Going from FQGSMRIFTKKLPEPDLPAEEKEQ [H14E] to FQGSMRIFTKKLPIPDLPAEEKEQ [H14I], the protein stability index falls from 2.05 to 1.84.
